Results as given in paper PMC8880714, “Antimicrobial effect and mechanism of bovine lactoferrin against the potato common scab pathogen Streptomyces scabiei” (PLoS ONE, 2022).

B1: Bovine lactoferrin (bLF): Bovine-derived lactoferrin purchased from FUJIFILM Wako (protein, UniProt P24627 20-708, looked up)
Lactotransferrin: APRKNVRWCTISQPEWFKCRRWQWRMKKLGAPSITCVRRAFALECIRAIAEKKADAVTLDGGMVFEAGRDPYKLRPVAAEIYGTKESPQTHYYAVAVVKKGSNFQLDQLQGRKSCHTGLGRSAGWIIPMGILRPYLSWTESLEPLQGAVAKFFSASCVPCIDRQAYPNLCQLCKGEGENQCACSSREPYFGYSGAFKCLQDGAGDVAFVKETTVFENLPEKADRDQYELLCLNNSRAPVDAFKECHLAQVPSHAVVARSVDGKEDLIWKLLSKAQEKFGKNKSRSFQLFGSPPGQRDLLFKDSALGFLRIPSKVDSALYLGSRYLTTLKNLRETAEEVKARYTRVVWCAVGPEEQKKCQQWSQQSGQNVTCATASTTDDCIVLVLKGEADALNLDGGYIYTAGKCGLVPVLAENRKSSKHSSLDCVLRPTEGYLAVAVVKKANEGLTWNSLKDKKSCHTAVDRTAGWNIPMGLIVNQTGSCAFDEFFSQSCAPGADPKSRLCALCAGDDQGLDKCVPNSKEKYYGYTGAFRCLAEDVGDVAFVKNDTVWENTNGESTADWAKNLNREDFRLLCLDGTRKPVTEAQSCHLAVAPNHAVVSRSDRAAHVKQVLLHQQALFGKNGKNCPDKFCLFKSETKNLLFNDNTECLAKLGGRPTYEEYLGTEYVTAIANLKKCSTSPLLEACAFLTR
B2: Holo-bLF: Iron-saturated (holo) bLF, iron saturation 95.5% (protein, UniProt P24627 20-708, looked up)
Lactotransferrin: APRKNVRWCTISQPEWFKCRRWQWRMKKLGAPSITCVRRAFALECIRAIAEKKADAVTLDGGMVFEAGRDPYKLRPVAAEIYGTKESPQTHYYAVAVVKKGSNFQLDQLQGRKSCHTGLGRSAGWIIPMGILRPYLSWTESLEPLQGAVAKFFSASCVPCIDRQAYPNLCQLCKGEGENQCACSSREPYFGYSGAFKCLQDGAGDVAFVKETTVFENLPEKADRDQYELLCLNNSRAPVDAFKECHLAQVPSHAVVARSVDGKEDLIWKLLSKAQEKFGKNKSRSFQLFGSPPGQRDLLFKDSALGFLRIPSKVDSALYLGSRYLTTLKNLRETAEEVKARYTRVVWCAVGPEEQKKCQQWSQQSGQNVTCATASTTDDCIVLVLKGEADALNLDGGYIYTAGKCGLVPVLAENRKSSKHSSLDCVLRPTEGYLAVAVVKKANEGLTWNSLKDKKSCHTAVDRTAGWNIPMGLIVNQTGSCAFDEFFSQSCAPGADPKSRLCALCAGDDQGLDKCVPNSKEKYYGYTGAFRCLAEDVGDVAFVKNDTVWENTNGESTADWAKNLNREDFRLLCLDGTRKPVTEAQSCHLAVAPNHAVVSRSDRAAHVKQVLLHQQALFGKNGKNCPDKFCLFKSETKNLLFNDNTECLAKLGGRPTYEEYLGTEYVTAIANLKKCSTSPLLEACAFLTR
modifications: iron-saturated (holo)
B3: Apo-bLF: Iron-depleted (apo) bLF, iron saturation 0.35% (protein, UniProt P24627 20-708, looked up)
Lactotransferrin: APRKNVRWCTISQPEWFKCRRWQWRMKKLGAPSITCVRRAFALECIRAIAEKKADAVTLDGGMVFEAGRDPYKLRPVAAEIYGTKESPQTHYYAVAVVKKGSNFQLDQLQGRKSCHTGLGRSAGWIIPMGILRPYLSWTESLEPLQGAVAKFFSASCVPCIDRQAYPNLCQLCKGEGENQCACSSREPYFGYSGAFKCLQDGAGDVAFVKETTVFENLPEKADRDQYELLCLNNSRAPVDAFKECHLAQVPSHAVVARSVDGKEDLIWKLLSKAQEKFGKNKSRSFQLFGSPPGQRDLLFKDSALGFLRIPSKVDSALYLGSRYLTTLKNLRETAEEVKARYTRVVWCAVGPEEQKKCQQWSQQSGQNVTCATASTTDDCIVLVLKGEADALNLDGGYIYTAGKCGLVPVLAENRKSSKHSSLDCVLRPTEGYLAVAVVKKANEGLTWNSLKDKKSCHTAVDRTAGWNIPMGLIVNQTGSCAFDEFFSQSCAPGADPKSRLCALCAGDDQGLDKCVPNSKEKYYGYTGAFRCLAEDVGDVAFVKNDTVWENTNGESTADWAKNLNREDFRLLCLDGTRKPVTEAQSCHLAVAPNHAVVSRSDRAAHVKQVLLHQQALFGKNGKNCPDKFCLFKSETKNLLFNDNTECLAKLGGRPTYEEYLGTEYVTAIANLKKCSTSPLLEACAFLTR
modifications: iron-depleted (apo)
B4: Human lactoferrin (hLF): Human-derived lactoferrin purchased from FUJIFILM Wako (protein, UniProt P02788 20-710, looked up)
Lactotransferrin: GRRRSVQWCAVSQPEATKCFQWQRNMRKVRGPPVSCIKRDSPIQCIQAIAENRADAVTLDGGFIYEAGLAPYKLRPVAAEVYGTERQPRTHYYAVAVVKKGGSFQLNELQGLKSCHTGLRRTAGWNVPIGTLRPFLNWTGPPEPIEAAVARFFSASCVPGADKGQFPNLCRLCAGTGENKCAFSSQEPYFSYSGAFKCLRDGAGDVAFIRESTVFEDLSDEAERDEYELLCPDNTRKPVDKFKDCHLARVPSHAVVARSVNGKEDAIWNLLRQAQEKFGKDKSPKFQLFGSPSGQKDLLFKDSAIGFSRVPPRIDSGLYLGSGYFTAIQNLRKSEEEVAARRARVVWCAVGEQELRKCNQWSGLSEGSVTCSSASTTEDCIALVLKGEADAMSLDGGYVYTAGKCGLVPVLAENYKSQQSSDPDPNCVDRPVEGYLAVAVVRRSDTSLTWNSVKGKKSCHTAVDRTAGWNIPMGLLFNQTGSCKFDEYFSQSCAPGSDPRSNLCALCIGDEQGENKCVPNSNERYYGYTGAFRCLAENAGDVAFVKDVTVLQNTDGNNNEAWAKDLKLADFALLCLDGKRKPVTEARSCHLAMAPNHAVVSRMDKVERLKQVLLHQQAKFGRNGSDCPDKFCLFQSETKNLLFNDNTECLARLHGKTTYEKYLGPQYVAGITNLKKCSTSPLLEACEFLRK

Assays:
[1] = test system: Streptomyces scabiei S58; test: Bactericidal effect assay: colony counting on starch agar after treatment; format: cell-based; conditions: bLF 1 mg/mL, 2 × 10^3 spores in 1 mL TSB, 28 °C
Procedure: (§1) A 12-well plate was used to assess the antimicrobial activity of LF, hydrolysate, LFcinB, and synthetic peptides. One milliliter of TSB containing each test substance was added to each well and then the spores of S. scabiei S58, prepared as described above, were added into each well at a final concentration of 2 × 10^5 spores/mL. The mixture was incubated at 28 °C for 72 h, and the absorbance was measured at 600 nm to monitor bacterial growth. To further confirm whether the antimicrobial activity is due to growth inhibition or bactericidal effect, 1 mL of TSB containing 2 ×10^3 spores and bLF (1 mg/mL) was incubated at 28 °C and directly cultured on STA after 5, 10, 15, 24, 48, and 72 h of incubation to count the emerging colonies. All assays were performed in duplicate and were repeated three times.
Fig 3 Bactericidal effect of bovine-derived lactoferrin (bLF) (A) and minimal inhibitory concentration (MIC) of bLF (B) on Streptomyces scabiei S58. For the assay of bactericidal effect, the mixture of bLF and spores (2 × 10^3/mL) was incubated at 28 °C and directly cultured on starch agar in a time-dependent manner. The number of colonies emerging on the plates was counted. For the MIC assay, the mixture of bLF and spores (2 × 10^5/mL) was incubated at 28 °C for 72 h in tryptic soy broth and the absorbance was measured at 600 nm to monitor bacterial growth. […]

[2] = test system: Streptomyces scabiei S58; test: microbe, parasite or virus in culture; format: cell-based; conditions: TSB, 28 °C, 72 h, absorbance 600 nm; for IC50: S. scabiei S58 spores 2 × 10^5/mL, probit analysis, mean ± SD, n = 3, read-out: Antimicrobial activity (IC50)
Procedure: S. scabiei S58, isolated from potatoes grown in Kagoshima, Japan, was used in this study. […] For antimicrobial assays, the spores of the isolate were incubated at 28 °C in tryptic soy broth (TSB) (Becton Dickinson, Sparks, USA). Escherichia coli strains JM109 and BL21(λDE3) were grown at 37 °C in Luria-Bertani broth supplemented with 100 μg/mL ampicillin for propagation.
as §1

Molecule | Number of colonies after treatment, at 5 h ([1]; plated on starch agar after 5 h) | Number of colonies after treatment, at 48 h ([1]; plated on starch agar after 48 h) | IC50 [2] [µM] | Minimal inhibitory concentration (no growth observed at this concentration and above) ([2]; spores 2 × 10^5/mL) [µM]
B1 | sharp decrease in the number of colonies | only a few colonies remained | 0.458 ± 0.074 | 3.9
B2 |  |  | 2.18 ± 0.428 | 
B3 |  |  | 2.39 ± 0.203 | 
B4 |  |  | 138 ± 7.96 | 
